Changes are numbered by the printed parent chain.
B1: H4L1 (antibody, V domains shown)
VH: QVQLQQSGAEVKKPGASVKMSCKASGYTFTRYTMHWVRQAPGQGLEWIGYINPSRGYTNYNQKFKDRVTLTTDTSISTAYMELSRLRSDDTAVYYCARYYDDHYSLDYWGQGTTLTVSS
VL: DIQMTQSPSSLSASVGDRVTMTCSASSSVSYMNWYQQKPGKAPKRLIYDTSKLASGVPSRFSGSGSGTDFTLTISSLQPEDFATYYCQQWSSNPFTFGSGTKLEINR
B2: H2L4 (antibody, V domains shown)
VH: B1 VH with K12A, M20V, I48M, V68A, T72R, T74K
VL: B1 VL with M4L, M21I, R45L, L77M
B3: H3L4 (antibody, V domains shown)
VH: B1 VH with Q5V, V68A, L70M, T74K
VL: B1 VL with M4L, M21I, R45L, L77M
B4: H4L2 (antibody, V domains shown)
VH: B1 VH
VL: B1 VL with R45L, L77M
B5: H3L1 (antibody, V domains shown)
VH: B1 VH with Q5V, V68A, L70M, T74K
VL: B1 VL
B6: H2L6 (antibody, V domains shown)
VH: B1 VH with K12A, M20V, I48M, V68A, T72R, T74K
VL: B1 VL with M21I, R45L, L46W, F70Y
B7: H4L3 (antibody, V domains shown)
VH: B1 VH
VL: B1 VL with M4L, M21I, R45L, F70Y
B8: H3L5 (antibody, V domains shown)
VH: B1 VH with Q5V, V68A, L70M, T74K
VL: B1 VL with M21I, L46W
B9: H2L1 (antibody, V domains shown)
VH: B1 VH with K12A, M20V, I48M, V68A, T72R, T74K
VL: B1 VL
B10: H3L6 (antibody, V domains shown)
VH: B1 VH with Q5V, V68A, L70M, T74K
VL: B1 VL with M21I, R45L, L46W, F70Y
B11: H4L4 (antibody, V domains shown)
VH: B1 VH
VL: B1 VL with M4L, M21I, R45L, L77M
B12: H2L5 (antibody, V domains shown)
VH: B1 VH with K12A, M20V, I48M, V68A, T72R, T74K
VL: B1 VL with M21I, L46W
B13: H2L2 (antibody, V domains shown)
VH: B1 VH with K12A, M20V, I48M, V68A, T72R, T74K
VL: B1 VL with R45L, L77M
B14: H3L2 (antibody, V domains shown)
VH: B1 VH with Q5V, V68A, L70M, T74K
VL: B1 VL with R45L, L77M
B15: H3L3 (antibody, V domains shown)
VH: B1 VH with Q5V, V68A, L70M, T74K
VL: B1 VL with M4L, M21I, R45L, F70Y
B16: H4L5 (antibody, V domains shown)
VH: B1 VH
VL: B1 VL with M21I, L46W
B17: H4L6 (antibody, V domains shown)
VH: B1 VH
VL: B1 VL with M21I, R45L, L46W, F70Y
B18: H2L3 (antibody, V domains shown)
VH: B1 VH with K12A, M20V, I48M, V68A, T72R, T74K
VL: B1 VL with M4L, M21I, R45L, F70Y

Molecular target: CD3 (antigen of the binding affinity table of Example 1) (UniProt P07766)
Test: kinetic fit with two-state parameters; method not given

Molecule	Kd [nM]	ka2 [s⁻¹]	kd2 [s⁻¹]	koff [s⁻¹]	kon [M⁻¹ s⁻¹]
OKT3-chimeric (antibody)	0.622	0.0105	0.00194	0.138	3.44e+07
B1	7.49	0.0282	0.0023	0.176	1.77e+06
B2	0.642	0.0234	0.000671	0.0814	3.54e+06
B3	1.33	0.0213	0.000744	0.119	3.03e+06
B4	15.3	0.026	0.00294	0.217	1.44e+06
B5	1.16	0.0229	0.000831	0.155	4.67e+06
B6	5.68	0.0101	0.00581	0.0638	4.1e+06
B7	14.7	0.0205	0.00238	0.264	1.88e+06
B8	7.6	0.00709	0.00496	0.0647	3.51e+06
B9	0.808	0.026	0.000779	0.0979	3.52e+06
B10	8.84	0.00491	0.00243	0.0814	3.05e+06
B11	13.9	0.0212	0.0023	0.248	1.75e+06
B12	2.55	0.0127	0.00369	0.0567	5.02e+06
B13	0.892	0.0268	0.000814	0.0986	3.26e+06
B14	1.75	0.0234	0.000939	0.139	3.06e+06
B15	1.38	0.0191	0.000815	0.402	1.19e+07
B16	9.96	0.0041	0.000744	0.141	2.17e+06
B17	12.4	0.00534	0.000594	0.251	2.02e+06
B18	0.619	0.0228	0.000719	0.13	6.42e+06

— patent US20230212289A1
